Measured values taken from the Human Domainome abundance scans (Beltran et al. 2025).
± gives the uncertainty stated by the source.

B1: Far upstream element-binding protein 2, residues 142 to 214; numbered along this chain, Q92945 (parent)
chain: RTSMTEEYRVPDGMVGLIIGRGGEQINKIQQDSGCKVQISPDSGGLPERSVSLTGAPESVQKAKMMLDDIVSR

Variants of: B1
Assay: abundance fitness (aPCA) (normalised: wild type 0, dead -1); higher = more abundant; growth selection in yeast, the domain comes from the species named
Settings: Homo sapiens

| Variant | abundance fitness |
| --- | --- |
| RTSMTEEYRVPDGMVGLIIGRGGEQINKIQQDSGCKVQISPDSGGLDERSVSLTGAPESVQKAKMMLDDIVSR | -0.002 ± 0.072 |
| RTSMTEEYRLPDGMVGLIIGRGGEQINKIQQDSGCKVQISPDSGGLPERSVSLTGAPESVQKAKMMLDDIVSR | 0.068 ± 0.041 |
| RTSMTEEYRFPDGMVGLIIGRGGEQINKIQQDSGCKVQISPDSGGLPERSVSLTGAPESVQKAKMMLDDIVSR | -0.132 ± 0.072 |
| RTSMTEEYRVPDGMVGLIIGRGGEQINKIQQDSGCKVQISPDSGGLPERSVSLTGAPESVQKAKMMLDDIVSH | -0.099 ± 0.15 |
| RTSMTEEYRVPDGMVGLIIGRGGEQINKIQQDSGCKFQISPDSGGLPERSVSLTGAPESVQKAKMMLDDIVSR | -0.677 ± 0.1 |
| RTSMTEEYRVPDGMVGLIIGRGGEQINKIQQDVGCKVQISPDSGGLPERSVSLTGAPESVQKAKMMLDDIVSR | -0.714 ± 0.053 |
| RTSMTEEYRVPDGMVGLIIGRGGEQINKIQQDSGCKVQISPDSGGLPERSHSLTGAPESVQKAKMMLDDIVSR | -1.3 ± 0.23 |
| RTSMTEEYRVPDGMVGLIIGRGGEQINKIQQDSGCKVQISPDSGGLPERSLSLTGAPESVQKAKMMLDDIVSR | 0.019 ± 0.052 |
| RTSMTEEYRVPDGMVGLIIGRGGEQINKIQQDSSCKVQISPDSGGLPERSVSLTGAPESVQKAKMMLDDIVSR | -0.357 ± 0.061 |
| RTSMTEEYRVPDGMVGLIIGRGGEQINKIQQDSDCKVQISPDSGGLPERSVSLTGAPESVQKAKMMLDDIVSR | -0.274 ± 0.082 |
| RTSMTEEYRVPDGMVGLIIGRGGEQINKIQQDSGCKVQISPDSGGLPERSVSLYGAPESVQKAKMMLDDIVSR | 0.028 ± 0.092 |
| RTSMTEEYRVPDGMVGLIIGRGGEQINKIQQDSGCKVQISPDSGGLPERSVSLAGAPESVQKAKMMLDDIVSR | -0.255 ± 0.047 |
| ETSMTEEYRVPDGMVGLIIGRGGEQINKIQQDSGCKVQISPDSGGLPERSVSLTGAPESVQKAKMMLDDIVSR | 0.075 ± 0.065 |
| RTSMTEEYRVRDGMVGLIIGRGGEQINKIQQDSGCKVQISPDSGGLPERSVSLTGAPESVQKAKMMLDDIVSR | -0.299 ± 0.041 |
| RTSMTEEYRVPDGMVGLIIGRDGEQINKIQQDSGCKVQISPDSGGLPERSVSLTGAPESVQKAKMMLDDIVSR | -0.027 ± 0.066 |
| RTSMTEEYRVPDGMVGLIIGRLGEQINKIQQDSGCKVQISPDSGGLPERSVSLTGAPESVQKAKMMLDDIVSR | -0.234 ± 0.044 |
| RTSMTEEYRVPDGMVGLIIGRGGEQINKIQQDSGCKVQISPDSSGLPERSVSLTGAPESVQKAKMMLDDIVSR | -0.09 ± 0.047 |
| RTSMTEEYRVPDGMVGLIIGRGGEQINKIQQDSGCKVQISPDSMGLPERSVSLTGAPESVQKAKMMLDDIVSR | 0.007 ± 0.069 |
| RTSMTEEYRVPDGMVGLIIGRGGEQINKIQQDSGCKVQISPDSGGLPERSVSLTGAPESVQKAKMMLDVIVSR | -0.181 ± 0.046 |

| Variant | abundance fitness |
| --- | --- |
| RTSMTEEYRVPDGMVGLIIGRGGEQINKIQQDSGCKVQISPDSGGLPERSVSLTGAPESVQKAKMMLDIIVSR | -0.262 ± 0.09 |
| RTSMTEEYRVPDGMVGLIIGRGGEQINKIQQDSGCKVQISPDSGGLPERSVSLTGAPESVQKAKMMLDNIVSR | -0.094 ± 0.066 |
| RTSMTEEYRVPDGMVGLIIGRGGEQINKIQQDSGCKVQISPDSGGLPERSVSLTGAPESVQKAKMMLDSIVSR | -0.122 ± 0.049 |
| RTSMTEEYRVPDGMVGLIIGRGGEQINKIQQDSGCKVQISPDSGGLPERSVSSTGAPESVQKAKMMLDDIVSR | -0.754 ± 0.061 |
| RTSMTEEYRVPDGFVGLIIGRGGEQINKIQQDSGCKVQISPDSGGLPERSVSLTGAPESVQKAKMMLDDIVSR | -0.349 ± 0.071 |
| RTSMTEEYRVPDGMVGLIIGRGGEQINKIQMDSGCKVQISPDSGGLPERSVSLTGAPESVQKAKMMLDDIVSR | -0.073 ± 0.071 |
| RTSMTEEYRVPDGMVGLIIGRGGEQINKIQVDSGCKVQISPDSGGLPERSVSLTGAPESVQKAKMMLDDIVSR | -0.207 ± 0.05 |
| RTSMTEEYRVPDGMFGLIIGRGGEQINKIQQDSGCKVQISPDSGGLPERSVSLTGAPESVQKAKMMLDDIVSR | -0.076 ± 0.088 |
| RTSMTEEYRVPDGMVGLIIGRGGEQINKIQQDSGCKVQISPYSGGLPERSVSLTGAPESVQKAKMMLDDIVSR | -0.061 ± 0.085 |
| RTSMTEEYRVPDGMVGLIIGRGGEQINKIQQDSGCKVQISPDSGGLPPRSVSLTGAPESVQKAKMMLDDIVSR | -0.065 ± 0.056 |
| RTSMTEEYRVPDGMVGLIIGRGLEQINKIQQDSGCKVQISPDSGGLPERSVSLTGAPESVQKAKMMLDDIVSR | -0.169 ± 0.049 |
| RTSMTEEYRVPDGMVGLIIGRGGEQINKIQQDSGCKVQISPDSGGLPERIVSLTGAPESVQKAKMMLDDIVSR | 0.126 ± 0.11 |
| RTSMTEEYRVPDGMVGLIIGIGGEQINKIQQDSGCKVQISPDSGGLPERSVSLTGAPESVQKAKMMLDDIVSR | -0.191 ± 0.06 |
| RTSMTEEYRVPDGMVGLIIGCGGEQINKIQQDSGCKVQISPDSGGLPERSVSLTGAPESVQKAKMMLDDIVSR | -0.012 ± 0.055 |
| RTSMTEEYRVPDGMVGLIIGRGGEQINKIQQDSGCKVQISPDSGGLPERSVSLTGAPESVLKAKMMLDDIVSR | -0.109 ± 0.05 |
| RTSMTEEYRVPDGMVGLIIGRGGEQINKIQQDSGCKVQISPDSGGLPERSVSLTGAPESVFKAKMMLDDIVSR | -0.106 ± 0.074 |
| RTSMTEFYRVPDGMVGLIIGRGGEQINKIQQDSGCKVQISPDSGGLPERSVSLTGAPESVQKAKMMLDDIVSR | 0.074 ± 0.073 |
| RTSMTEEYRVPIGMVGLIIGRGGEQINKIQQDSGCKVQISPDSGGLPERSVSLTGAPESVQKAKMMLDDIVSR | 0.041 ± 0.095 |
| RTSMTEEYRVPDGMVGLIIGRGGEQINKIQQDSGCKVQISPDSGGLPERSVSLTGAPESVQKAKMMMDDIVSR | -0.055 ± 0.053 |
